# In a protein production outcome set (Wang et al. 2014):
# Assay: label from the status in PepcDB records
row,Sequence,protein production
1,EAPLLYGDSSPEIVLVGHGSTYGVIKEIVDIFSKDKKIAMMHFSQIYPFPERDRFDYIEFLKNANLVISVENNATGQFAKLMRAETGFEFARQILKYDGRPFTIEKLKEEIDAC,not failed
2,MTVWDRPEPPHRPVPLDRERIVAAAVALADEGGLTAVSVRKVAARLDAGPMRLYGFISTKDELFDLMVDAVYAEILPEERAGDWREALRVLAHRTRQAALRHPWLADLLGGRPALGPNGLAVAEATLAALDGLADVDTVMRAVETVSSYFTGAVRREIADLRAERATGLSKPEWQREHGPHLTRMLATGRYPALAKAVHDGTHVDAEESFATGLDWVLDAVAVRLARPPGS,not failed
3,MKLIDLHVHSYHSDGVLAPAVLVAMAAERGLASLAIADHDAVDGIDEAVAEGVRLGVDVIPAVELSVELGRFSDLHILGYCIDHHDPAFRDKLAGFRSARDNRGKAILEKINRRLLHSRKAPLSYDEVLSMAGGAVGRPHIGRVLVDNGYARDMEDAFRRYLIPCNVPKRYMPAGEAIAEIRRIGGVSVLAHPPTITDDRRRLRQVVEQLAQLGLDGLEVFNNLCFKDDMLYLERLAEEFGLLMTGGSDFHGFEDDVELGRGRGGLAVAHSLAEKVKELAAQRKHSHA,failed
4,MGHHHHHHSHMVTHSKFPAAGMSRPLDTSLRLKTFSSKSEYQLVVNAVRKLQESGFYWSAVTGGEANLLLSAEPAGTFLIRDSSDQRHFFTLSVKTQSGTKNLRIQCEGGSFSLQSDPRSTQPVPRFDCVLKLVHHYMPPPGAPSFPSPPTEPSSEVPEQPSAQPLPGSPPRRAYYIYSGGEKIPLVLSRPLSSNVATLQHLCRKTVNGHLDSYEKVTQLPGPIREFLDQYDAPL,failed
5,MNIVENEICIRTLIDDDFPLMLKWLTDERVLEFYGGRDKKYTLESLKKHYTEPWEDEVFRVIIEYNNVPIGYGQIYKMYDELYTDYHYPKTDEIVYGMDQFIGEPNYWSKGIGTRYIKLIFEFLKKERNANAVILDPHKNNPRAIRAYQKSGFRIIEDLPEHELHEGKKEDCYLMEYRYDDNATNVKAMKYLIEHYFDNFKVDSIEIIGSGYDSVAYLVNNEYIFKTKFSTNKKKGYAKEKAIYNFLNTNLETNVKIPNIEYSYISDELSILGYKEIKGTFLTPEIYSTMSEEEQNLLKRDIASFLRQMHGLDYTDISECTIDNKQNVLEEYILLRETIYNDLTDIEKDYIESFMERLNATTVFEGKKCLCHNDFSCNHLLLDGNNRLTGIIDFGDSGIIDEYCDFIYLLEDSEEEIGTNFGEDILRMYGNIDIEKAKEYQDIVEEYYPIETIVYGIKNIKQEFIENGRKEIYKRTYKD,failed
6,MDKQSSAGGVKRSVPCESNEVNETMPETPTGDSDPQPAPKKMKTSESSTILVVRYRRNVKRTSPEELLNDHARENRINPLQMEEEEFMEIMVEIPAK,failed
7,MGVANLRVMHYVHKDKAFAYWSCTCVYAPESRYCSEEHKKMALAEREYELPHNFANVHLHTNMEDLVLPKIISYLRDPQLGIIEIPNLQYIDDVFNVTPTEQPDMFSTNLDEREEFNIWLFMMIS,failed
8,MRKELCRNFQRGSCRYGENCRFLHPQQAKPNNPFGFGTQNQQQQQQQQQQNSSNPFGFGVQSGGSSRPNQFQNTWSRTASTPTGGGAAASTQQTGKQTQPADHKCTDPAACKRVMQDDFKNERPMWKLTCYGHWKYFPCDVTGDISYEELRAVAYEEAKRGIPLQSIVERERNLQNSKIAEFENFLRNPYKGSVTANQSPFAATTPSIFPQSSQINSPSPAFSGFNQQTAFSNTNAGGLSSSGPPNAFASFNQQTTFPNTNAGGVSSSGPPNPFASFTQQSNNQQTAFSNTNAGGLSSSGPPNAFASFNKQPNAFSVNTPQPVPSGPSGFQTNPSTTFKPASFGPGPGFATTPQNNNIFGQSTPTPATNTSQNNQTAFNFNVPVASFTAPAINTTNTSSGTELQIGGDPVDSSIWLKEKWNPGEIPEQAPPDAFV,failed
9,MRPHRAFSPGLTGVLPLRETRHLVEVLRARVGDRFTVFDGEREALAEVVDLGPPLRYRVLEERRPEREVGVEVVLYVALLKGDKLAEVVRAATELGATRIQPLVTRHSVPKEMGEGKLRRLRAVALEAAKQSGRVVVPEVLPPIPLKAVPQVAQGLVAHVGATARVREVLDPEKPLALAVGPEGGFAEEEVALLEARGFTPVSLGRRILRAETAALALLALCTAGEGR,not failed
10,MALFSVFSVAQTTTYHTKNKKSISAYQEAELLQQQRRWNEAINVLDAVIQKDTGFVEAYYKVGSMYMAMGNKTAAARYFCKGADLDPSVKAFAGAYFTAGELSYNEGEYVRAKRYFGYALNVQSGDKKIKEQTPVYIAKCDFAIDMMKHPVDFKPVLMTPPINTAFAQSHPVLTADGKTLYYTTLSGLSRQDDENIVTSSYVNGKWSEPVSISDNINSKENEGTCSISMDGNSLVFVGCGKADGLGSCDIYISKKVNNVWSKPTNLGPAVNSTSWDSHPSLSADGRTLYFVSARKGGFGKEDIYVTHLDEKGIWSPAQNAGSSVNTSGTEFSPFIHADGTTLYFSSNGLLGMGGLDIFYTTGNDTTWAVPKNIGYPLNTYANDETLFITVDGAKGYYSRFDGTNVNYNSRIFLYEFDVPQSLKPGRISTFAKGHIYDKQTKKPLGARVELVDIETNTVTQAVQSDSITGEYTIVITEGKEYAVYVNRNKYLFESLNVNYKNPTSFDALTLDIYLTPIISGSHVTLNNIFFQTNSYQLEEKSISELKKLINFIQINPAQRVELAGYTDNVGTAEANLKLSAMRAKAVYDYLIQHGIKPAGITYKGYGAASPVADNNSEEGRQKNRRLEIKIL,failed
11,RSTRQQAGREAEAFALQFLQQQGLRLIEQNWLCKRGELDLVMLDGDTVVFVEVRYRRHCGWGGAVESVDFRKQGKLVTAAQLFLQQVSCWADYPCRFDVIAIEGSPGSFD,failed
12,MTVTDHILPTATNGRPPGLIIAAPSTNSGKTTVTLALHAALRRRSLTVQPYKCGPDYIDPAFHEIAAGRPCYNLDSWAFGQDRITYLLDAAAGADLCLAEGVMGLFDGGSARGAWGNGATADIAAFTGWPVVLVIDVAGQAQSAAALALGFARYRSDVRIAGVILNNVASARHEALVRDGFAAQDIPVLGGFERQRDLTLKNRHLGLVQARETARLDIRLQQLADSAVRGIDLDALIRAAQPARPIASTIRPLTPPGQRIALAHDDAFSFIYPHLTAGWRAAGAEIVPFSPLNDEGPDPSCDAAWLPGGYPELHAGRLAAATRFKAALGAFAETRAVHGECGGYMTLGAGLIDADGTRHAMAGLLGLETDFASRKLHLGYRLATLHADAAGKAAGSVLRGHEYHYARVVTVADEPLAEIRDPAGQLTDETGSRRGHVTGTFFHLIDVAEEAIALEHHHHHH,failed
13,MNKEALVNRLNASAKRQKADIVIKNGKIMDVYNQEWIYEDIAITDGVIVGLGEYEGENIIDAEGQMIVPGFIDGHVHIESSMVTPIEFAKAVLPHGVTTVVTDPHEIANVSGEKGIEFMLEQARHTPLNIHFMLPSSVPAASFERSGAILKAADLKPFYEEEEVLGLAEVMDYVSVQQAEKDMVQKLLDARVAGKRIDGHLAGLSTDLINIYRTAFVLNDHEVTSKEEALDRIRRGMYVMMREGSVAKNTLNVLPAVNEKNRTPVFFCTDDKHVDDLLSEGSVNHQVKMAIQAGLNPFLAYQLGSLNAAECYGLDTKGAIAPGFDADLLFVSDLENVTVTMTMVKGQTVAEDSKAVYQDHASTAAPDQALLDSVKLAAPLNKQDFHMPIDSEQQINVIQIIPNQLETRLVQVPAPVAREFEPDTELDLLKIAVVERHKGLKETGLGVVKGFGFKSGAIATTISHDSHNIIAVGTNDEDIAAAVNKLQEIGGGLTIIKNGEELHSVPLPIAGLLSDQSAEQVNQSLLTLHDKLSLIGFTGGFNPFLTLSFLALPVIPDIKMTTTGLFDVKSFQHISLQLEHHHHHH,not failed
14,MPGSIPLIGERFPEMEVTTDHGVIKLPDHYVSQGKWFVLFSHPADFTPVCTTEFVSFARRYEDFQRLGVDLIGLSVDSVFSHIKWKEWIERHIGVRIPFPIIADPQGTVARRLGLLHAESATHTVRGVFIVDARGVIRTMLYYPMELGRLVDEILRIVKALKLGDSLKRAVPADWPNNEIIGEGLIVPPPTTEDQARARMESGQYRCLDWWFCWDTPASRDDVEEARRYLRRAAEKPAKLLYEEARTHLH,not failed
15,MPLVLHHPERQAELGSGLRDGGGAALRPPGRLVKQMDFTEAYADTCSTVGLAAREGNVKVLRKLLKKGRSVDVADNRGWMPIHEAAYHNSVECLQMLINADSSENYIKMKTFEGFCALHLAASQGHWKIVQILLEAGADPNATTLEETTPLFLAVENGQIDVLRLLLQHGANVNGSHSMCGWNSLHQASFQENAEIIKLLLRKGANKECQDDFGITPLFVAAQYGKLESLSILISSGANVNCQALDKATPLFIAAQEGHTKCVELLLSSGADPDLYCNEDSWQLPIHAAAQMGHTKILDLLIPLTNRACDTGLNKVSPVYSAVFGGHEDCLEILLRNGYSPDAQACLVFGFSSPVCMAFQKDCEFFGIVNILLKYGAQINELHLAYCLKYEKFSIFRYFLRKGCSLGPWNHIYEFVNHAIKAQAKYKEWLPHLLVAGFDPLILLCNSWIDSVSIDTLIFTLEFTNWKTLAPAVERMLSARASNAWILQQHIATVPSLTHLCRLEIRSSLKSERLRSDSYISQLPLPRSLHNYLLYEDVLRMYEVPELAAIQDG,failed
16,MFSLRSALILALLIIASLVNTKYSLPLALLVVGLTYLLDEQRLLPYASIVSFLIPMVYPLETSYVPMIYALSSIGILASKYSRLLSSVLIILGVSILPLGDVQKYLILYLTAFLLLGVDIRGTLGGGIIMLILATQGYVPYDLAFYTILFGVLSLTTLYKIKVTRYHAIAILSAIFPLLYSYFPLPSFLVSLGSALVFPPALFSTSILLYVEGFKQGIYGLLLILLSLVYNRYEKYFRTISMVLVSAGLSIFSSVFPPLILILIVIYFLEKGKVLTYSQYFLIPLSLYLLIQGSYQSLVYSSIALIIVSTLRMILRTTDSNRFKKLVKLMNARIVGGIISLLIEIILFFIALQYLVFPLSYVALTLSVIYAVFIFRERNAFVHFSLSAVLALFFNPVFALGGIKLKDSLNVIVVALTIIMGILFSHTLYFSIISVFLSVSYLLQKFDIHDLVPLSVISIVSIIPGITWTYVLPPILLSFSYLITKKYSYELGLSSMFCIIILIHYLIV,failed
17,TDGEGEDPAEYPTVNHKIEKAIEVTKTGLEEYENPVVMWTGGKDSTLTLYFVKEVAERFDLEVPPVVFIDHYQHFDELIDFVEHWADEWDLDVIWARNEDVGNYVDENGLEPGDDIPVDELSEHNQHHIRNILEYEEDTFPFLLDTYVGNHLLKTVALNDTIEEHDVDGILSGIRWDEQESRADETFFSPRHDPDIYPPHDRIQSILQFAEADVWEAFWNFVVPDTVEGYPDEGYVPQGQDDLPEGIEKEDVPVSPKYFAGFRSLGSE,failed
18,MSSLMMHCLIHVQELMNVKGIVVDELTGRSGPDHAKSLDPRTSLLRLITRPLGRVPPRESLDHFTRPPGRVSSPLPPSPSLDYILDVELQSLLHSALNQTLEHKEEKKTPAIHSTSHSTTLVEYSS,failed
19,MSSRTRARGSKRAAGVHTVSIPRQRGRRRAQPFVIVFPESPSLTREALGFIGRALWKGRRALAPTALALLAFAVTGLLHVMAWWSSLILAPLAAGPLVWLAVMQVRRPGRGAVVLWRAGLALLATFTAAWAALAAGFGPLAGPLDLVWLLMWIAAQTAWLFVRRSH,failed
20,MEIVQEGIAKIIVPEIPKTVSSDMPVFYNPRMRVNRDLAVLGLEYLCKKLGRPVKVADPLSASGIRAIRFLLETSCVEKAYANDISSKAIEIMKENFKLNNIPEDRYEIHGMEANFFLRKEWGFGFDYVDLDPFGTPVPFIESVALSMKRGGILSLTATDTAPLSGTYPKTCMRRYMARPLRNEFKHEVGIRILIKKVIELAAQYDIAMIPIFAYSHLHYFKLFFVKERGVEKVDKLIEQFGYIQYCFNCMNREVVTDLYKFKEKCPHCGSKFHIGGPLWIGKLWDEEFTNFLYEEAQKREEIEKETKRILKLIKEESQLQTVGFYVLSKLAEKVKLPAQPPIRIAVKFFNGVRTHFVGDGFRTNLSFEEVMKKMEELKEKQKEFLEKKKQG,not failed
21,MPQSSRYSDEHVEQLLSEMVNVLEKHHAPTDLALMVLGNMVTNLINTSIAPAQRQILARSFAEALQASIKKADKAHLEHHHHHH,failed
